The target in the test is fluorescently labeled isolated Grb2 C-SH3 domain. The test is described as follows: fluorescence polarisation; fluorescence anisotropy; PTP1B titrated into a solution of N-terminally fluorophore-labelled Grb2 construct; N = 2–4 independent titrations. (In general: Polarisation of emitted light reports the rotation of a fluorescent probe.)

B1: PTP1B^1−401 (domain or fragment)
chain: MEMEKEFEQIDKSGSWAAIYQDIRHEASDFPCRVAKLPKNKNRNRYRDVSPFDHSRIKLHQEDNDYINASLIKMEEAQRSYILTQGPLPNTCGHFWEMVWEQKSRGVVMLNRVMEKGSLKCAQYWPQKEEKEMIFEDTNLKLTLISEDIKSYYTVRQLELENLTTQETREILHFHYTTWPDFGVPESPASFLNFLFKVRESGSLSPEHGPVVVHCSAGIGRSGTFCLADTCLLLMDKRKDPSSVDIKKVLLEMRKFRMGLIQTADQLRFSYLAVIEGAKFIMGDSSVQDQWKELSHEDLEPPPEHIPPPPRPPKRILEPHNGKCREFFPNHQWVKEETQEDKDCPIKEEKGSPLNAAPYGIESMSQDTEVRSRVVGGSLRGAQAASPAKGEPSLPEKDEDH
For orientation: Kd means the concentration at which binding is half-saturated. A low value points to higher affinity. B1 gave a Kd of 82.4 µM.

B2: PTP1B^1−321 (wild-type protein tyrosine phosphatase 1B, residues 1-321) (domain or fragment)
chain: MEMEKEFEQIDKSGSWAAIYQDIRHEASDFPCRVAKLPKNKNRNRYRDVSPFDHSRIKLHQEDNDYINASLIKMEEAQRSYILTQGPLPNTCGHFWEMVWEQKSRGVVMLNRVMEKGSLKCAQYWPQKEEKEMIFEDTNLKLTLISEDIKSYYTVRQLELENLTTQETREILHFHYTTWPDFGVPESPASFLNFLFKVRESGSLSPEHGPVVVHCSAGIGRSGTFCLADTCLLLMDKRKDPSSVDIKKVLLEMRKFRMGLIQTADQLRFSYLAVIEGAKFIMGDSSVQDQWKELSHEDLEPPPEHIPPPPRPPKRILEPHN
In the case of B2, the Kd worked out at 62 µM.
